In publication PMC2647316 (Nucleic Acids Research, 2008):

Target: T1, GkDnaC R344A (Geobacillus kaustophilus HTA426, UniProt Q5KU75 1-454, R344A)
T1 sequence: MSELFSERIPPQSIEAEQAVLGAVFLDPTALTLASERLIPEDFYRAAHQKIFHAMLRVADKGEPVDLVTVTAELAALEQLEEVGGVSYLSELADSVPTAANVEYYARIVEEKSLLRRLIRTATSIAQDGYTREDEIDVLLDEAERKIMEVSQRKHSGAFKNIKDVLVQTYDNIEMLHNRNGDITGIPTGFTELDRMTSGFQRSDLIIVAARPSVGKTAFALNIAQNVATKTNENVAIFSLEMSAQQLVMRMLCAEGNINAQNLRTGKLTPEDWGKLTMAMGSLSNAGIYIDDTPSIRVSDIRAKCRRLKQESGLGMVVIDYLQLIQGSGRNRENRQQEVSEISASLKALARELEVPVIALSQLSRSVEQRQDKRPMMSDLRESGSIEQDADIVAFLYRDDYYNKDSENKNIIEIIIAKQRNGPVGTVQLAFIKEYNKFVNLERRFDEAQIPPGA
Experiment: SPR

TTTTTTTTTTTTTTTTTTTTTTTTTTTTTT (ssDNA) [5'Bio-(dT)30] showed a Kd of 17.9 µM.
